{
  "source": "paper PMC9255719",
  "origin": "cited, not measured here",
  "key": {"FcRn (Rattus norvegicus) [1]": {"target": "FcRn (Rattus norvegicus) (UniProt P13599)", "sequence (P13599 23-298)": "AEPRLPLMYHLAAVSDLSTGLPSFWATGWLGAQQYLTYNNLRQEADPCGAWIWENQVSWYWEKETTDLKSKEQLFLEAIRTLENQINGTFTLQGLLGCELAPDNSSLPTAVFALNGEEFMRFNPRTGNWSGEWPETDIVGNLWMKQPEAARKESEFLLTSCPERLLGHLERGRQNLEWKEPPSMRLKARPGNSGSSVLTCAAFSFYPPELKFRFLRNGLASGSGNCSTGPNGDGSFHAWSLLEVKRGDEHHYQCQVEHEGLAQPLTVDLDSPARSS"}, "cubilin": {"target": "cubilin (UniProt O60494)", "sequence (O60494 36-3623)": "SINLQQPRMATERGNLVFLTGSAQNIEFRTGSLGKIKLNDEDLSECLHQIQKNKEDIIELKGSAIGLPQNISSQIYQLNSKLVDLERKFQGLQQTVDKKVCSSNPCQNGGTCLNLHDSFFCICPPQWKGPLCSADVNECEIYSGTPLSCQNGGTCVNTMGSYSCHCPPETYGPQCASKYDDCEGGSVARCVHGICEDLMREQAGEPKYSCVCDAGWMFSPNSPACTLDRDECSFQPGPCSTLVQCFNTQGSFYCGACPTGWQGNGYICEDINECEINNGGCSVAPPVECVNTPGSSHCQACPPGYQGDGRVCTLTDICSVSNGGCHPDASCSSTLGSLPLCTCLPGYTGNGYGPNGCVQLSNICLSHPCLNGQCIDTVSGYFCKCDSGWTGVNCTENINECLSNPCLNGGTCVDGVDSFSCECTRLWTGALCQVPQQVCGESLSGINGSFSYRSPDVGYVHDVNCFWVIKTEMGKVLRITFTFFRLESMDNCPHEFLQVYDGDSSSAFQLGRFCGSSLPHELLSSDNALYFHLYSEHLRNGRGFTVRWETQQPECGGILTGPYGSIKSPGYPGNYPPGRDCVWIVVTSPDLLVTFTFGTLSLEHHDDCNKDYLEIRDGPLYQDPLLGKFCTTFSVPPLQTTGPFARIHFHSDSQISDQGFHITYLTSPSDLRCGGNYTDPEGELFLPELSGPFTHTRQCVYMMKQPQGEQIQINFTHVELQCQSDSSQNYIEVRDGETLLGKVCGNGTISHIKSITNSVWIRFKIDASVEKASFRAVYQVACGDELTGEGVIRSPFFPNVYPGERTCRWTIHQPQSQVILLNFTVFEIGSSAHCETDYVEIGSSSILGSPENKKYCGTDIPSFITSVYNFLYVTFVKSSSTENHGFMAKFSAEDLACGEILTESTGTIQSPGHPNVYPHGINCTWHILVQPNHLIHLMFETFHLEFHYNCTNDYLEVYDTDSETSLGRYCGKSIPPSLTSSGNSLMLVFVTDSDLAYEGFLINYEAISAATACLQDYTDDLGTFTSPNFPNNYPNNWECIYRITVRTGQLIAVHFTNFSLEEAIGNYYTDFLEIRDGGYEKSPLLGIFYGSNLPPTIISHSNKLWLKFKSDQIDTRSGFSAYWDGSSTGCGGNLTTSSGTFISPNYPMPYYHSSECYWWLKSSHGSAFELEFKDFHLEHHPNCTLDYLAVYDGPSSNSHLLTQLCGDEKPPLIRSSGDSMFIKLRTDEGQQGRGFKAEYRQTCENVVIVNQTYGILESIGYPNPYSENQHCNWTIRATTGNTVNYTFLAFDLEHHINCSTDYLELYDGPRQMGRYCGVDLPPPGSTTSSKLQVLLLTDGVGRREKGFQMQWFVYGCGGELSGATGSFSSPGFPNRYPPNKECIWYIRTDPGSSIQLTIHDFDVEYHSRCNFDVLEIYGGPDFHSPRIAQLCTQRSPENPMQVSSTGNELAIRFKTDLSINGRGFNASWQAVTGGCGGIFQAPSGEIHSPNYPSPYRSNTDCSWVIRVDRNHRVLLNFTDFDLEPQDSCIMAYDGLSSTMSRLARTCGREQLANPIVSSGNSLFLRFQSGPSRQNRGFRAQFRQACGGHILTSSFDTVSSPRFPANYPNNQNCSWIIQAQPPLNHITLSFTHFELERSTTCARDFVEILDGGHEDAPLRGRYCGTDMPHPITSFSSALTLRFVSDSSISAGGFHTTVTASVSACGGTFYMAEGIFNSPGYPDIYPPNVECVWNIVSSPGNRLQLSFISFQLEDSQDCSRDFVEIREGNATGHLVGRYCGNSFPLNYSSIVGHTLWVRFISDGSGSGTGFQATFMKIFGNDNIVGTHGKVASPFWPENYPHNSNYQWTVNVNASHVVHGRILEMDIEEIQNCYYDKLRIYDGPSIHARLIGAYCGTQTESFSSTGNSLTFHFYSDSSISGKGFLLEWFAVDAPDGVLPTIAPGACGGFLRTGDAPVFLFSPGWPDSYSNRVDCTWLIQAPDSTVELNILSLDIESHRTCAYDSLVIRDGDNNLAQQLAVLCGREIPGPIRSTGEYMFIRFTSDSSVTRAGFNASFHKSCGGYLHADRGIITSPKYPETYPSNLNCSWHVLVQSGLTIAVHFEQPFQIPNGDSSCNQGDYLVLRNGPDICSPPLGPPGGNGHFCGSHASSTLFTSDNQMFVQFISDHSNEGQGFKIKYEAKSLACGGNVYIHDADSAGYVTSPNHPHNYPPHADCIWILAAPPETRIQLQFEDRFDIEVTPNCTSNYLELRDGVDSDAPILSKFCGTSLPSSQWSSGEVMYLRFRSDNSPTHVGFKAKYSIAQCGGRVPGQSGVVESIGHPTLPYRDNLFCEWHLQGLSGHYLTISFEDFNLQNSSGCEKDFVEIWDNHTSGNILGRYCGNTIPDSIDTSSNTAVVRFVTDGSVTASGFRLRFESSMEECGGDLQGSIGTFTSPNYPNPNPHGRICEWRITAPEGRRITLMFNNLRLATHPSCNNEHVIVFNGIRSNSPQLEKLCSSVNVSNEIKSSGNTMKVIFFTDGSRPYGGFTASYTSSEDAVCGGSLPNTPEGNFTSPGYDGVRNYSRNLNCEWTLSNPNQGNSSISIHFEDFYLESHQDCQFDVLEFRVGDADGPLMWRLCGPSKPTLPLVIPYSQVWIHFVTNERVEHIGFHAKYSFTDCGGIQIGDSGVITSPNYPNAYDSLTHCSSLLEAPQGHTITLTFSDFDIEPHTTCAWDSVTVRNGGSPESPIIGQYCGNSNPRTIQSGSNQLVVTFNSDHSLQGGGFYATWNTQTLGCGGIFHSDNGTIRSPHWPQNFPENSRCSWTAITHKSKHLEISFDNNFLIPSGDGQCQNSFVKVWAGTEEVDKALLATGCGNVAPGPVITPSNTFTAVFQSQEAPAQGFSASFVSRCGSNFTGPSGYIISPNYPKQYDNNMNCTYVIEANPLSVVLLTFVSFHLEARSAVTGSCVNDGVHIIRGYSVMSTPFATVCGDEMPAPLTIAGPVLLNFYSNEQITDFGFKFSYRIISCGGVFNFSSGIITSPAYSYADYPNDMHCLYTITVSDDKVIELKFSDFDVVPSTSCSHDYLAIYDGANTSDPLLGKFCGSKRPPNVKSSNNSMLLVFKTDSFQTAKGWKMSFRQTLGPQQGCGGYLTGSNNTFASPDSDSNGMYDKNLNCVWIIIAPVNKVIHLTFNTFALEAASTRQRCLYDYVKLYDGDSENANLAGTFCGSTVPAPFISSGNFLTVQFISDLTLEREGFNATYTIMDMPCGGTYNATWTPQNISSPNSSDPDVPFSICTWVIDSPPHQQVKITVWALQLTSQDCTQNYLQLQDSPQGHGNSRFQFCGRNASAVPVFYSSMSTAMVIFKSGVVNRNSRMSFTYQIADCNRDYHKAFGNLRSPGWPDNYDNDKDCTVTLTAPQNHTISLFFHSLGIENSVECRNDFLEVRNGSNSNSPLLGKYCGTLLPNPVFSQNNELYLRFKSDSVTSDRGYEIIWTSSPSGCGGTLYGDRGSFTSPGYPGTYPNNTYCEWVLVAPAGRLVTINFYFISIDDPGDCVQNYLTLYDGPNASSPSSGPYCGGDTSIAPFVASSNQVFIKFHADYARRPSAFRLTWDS"}, "FcRn (Rattus norvegicus) [2]": {"target": "FcRn (Rattus norvegicus) (UniProt P13599)", "remark": "listed apart in the source"}, "FcRn (Rattus norvegicus) [3]": {"target": "FcRn (Rattus norvegicus) (UniProt P13599)", "remark": "listed apart in the source"}, "FcRn (Rattus norvegicus) [4]": {"target": "FcRn (Rattus norvegicus) (UniProt P13599)", "remark": "listed apart in the source"}, "FcRn (Rattus norvegicus) [5]": {"target": "FcRn (Rattus norvegicus) (UniProt P13599)", "remark": "listed apart in the source"}, "FcRn (Rattus norvegicus) [6]": {"target": "FcRn (Rattus norvegicus) (UniProt P13599)", "remark": "listed apart in the source"}, "FcRn (Homo sapiens) [7]": {"target": "FcRn (Homo sapiens) (UniProt P55899)", "sequence (P55899 24-297)": "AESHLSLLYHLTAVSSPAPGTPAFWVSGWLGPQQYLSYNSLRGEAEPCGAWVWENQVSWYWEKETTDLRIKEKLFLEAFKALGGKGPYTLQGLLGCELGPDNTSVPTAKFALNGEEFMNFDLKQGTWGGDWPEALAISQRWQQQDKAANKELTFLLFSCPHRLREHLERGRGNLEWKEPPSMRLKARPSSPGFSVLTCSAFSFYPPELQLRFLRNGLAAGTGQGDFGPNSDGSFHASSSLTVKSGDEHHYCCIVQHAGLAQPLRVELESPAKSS"}, "FcRn (Rattus norvegicus) [8]": {"target": "FcRn (Rattus norvegicus) (UniProt P13599)", "remark": "listed apart in the source"}, "FcRn (Rattus norvegicus) [9]": {"target": "FcRn (Rattus norvegicus) (UniProt P13599)", "remark": "listed apart in the source"}, "FcRn (Rattus norvegicus) [10]": {"target": "FcRn (Rattus norvegicus) (UniProt P13599)", "remark": "listed apart in the source"}, "FcRn (Rattus norvegicus) [11]": {"target": "FcRn (Rattus norvegicus) (UniProt P13599)", "remark": "listed apart in the source"}, "FcRn (Rattus norvegicus) [12]": {"target": "FcRn (Rattus norvegicus) (UniProt P13599)", "remark": "listed apart in the source"}, "[13]": {"target": "Albumin-CF-594 maleimide conjugate (dye:albumin 1:3) (UniProt P02770)", "assay": "not stated in this review (data reproduced from ref [155])", "settings": "pH 6; not stated (pH 6 and pH 7.4)"}, "[14]": {"target": "Serum albumin, unlabelled ('No dye') (UniProt P02770)", "assay": "not stated in this review (data reproduced from ref [155])", "settings": "not stated (pH 6 and pH 7.4)"}, "[15]": {"target": "Albumin-Texas Red-X conjugate (1:1) (UniProt P02770)", "assay": "not stated in this review (data reproduced from ref [155])", "settings": "pH 6; not stated (pH 6 and pH 7.4)"}, "[16]": {"target": "Albumin-fluorescein conjugate (6.4:1) (UniProt P02770)", "assay": "not stated in this review (data reproduced from ref [155])", "settings": "not stated (pH 6 and pH 7.4)"}, "[17]": {"target": "Albumin-Texas Red-X conjugate (2:1) (UniProt P02770)", "assay": "not stated in this review (data reproduced from ref [155])", "settings": "pH 6; not stated (pH 6 and pH 7.4)"}, "[18]": {"target": "Albumin-Alexa 568 conjugate (4:1) (UniProt P02770)", "assay": "not stated in this review (data reproduced from ref [155])", "settings": "pH 6; not stated (pH 6 and pH 7.4)"}, "[19]": {"target": "Albumin-Texas Red conjugate (1:1) (UniProt P02770)", "assay": "not stated in this review (data reproduced from ref [155])", "settings": "not stated (pH 6 and pH 7.4)"}, "[20]": {"target": "Albumin-Alexa 647 maleimide conjugate (1:1) (UniProt P02770)", "assay": "not stated in this review (data reproduced from ref [155])", "settings": "pH 6; not stated (pH 6 and pH 7.4)"}, "[21]": {"target": "Albumin-Texas Red-X conjugate (5:1) (UniProt P02770)", "assay": "not stated in this review (data reproduced from ref [155])", "settings": "pH 6; not stated (pH 6 and pH 7.4)"}, "[22]": {"target": "Albumin-Texas Red-X conjugate (4:1) (UniProt P02770)", "assay": "not stated in this review (data reproduced from ref [155])", "settings": "pH 6; not stated (pH 6 and pH 7.4)"}, "FcRn (Rattus norvegicus) [23]": {"target": "FcRn (Rattus norvegicus) (UniProt P13599)", "remark": "listed apart in the source"}, "FcRn (Homo sapiens) [24]": {"target": "FcRn (Homo sapiens) (UniProt P55899)", "remark": "listed apart in the source"}, "FcRn (Rattus norvegicus) [25]": {"target": "FcRn (Rattus norvegicus) (UniProt P13599)", "remark": "listed apart in the source"}, "FcRn (Rattus norvegicus) [26]": {"target": "FcRn (Rattus norvegicus) (UniProt P13599)", "remark": "listed apart in the source"}},
  "note": "pKd: −log10 of the molar value. Where “and” joins values, the source holds several entries; their conditions need not be identical. Equal entries are not always repeated. Where two headings read alike, the source gives them in different places.",
  "data": [
    {"substance": "albumin (from UniProt P02769)", "values": [
      {"measurement": "pKd", "setting": "FcRn (Rattus norvegicus) [1]", "result": "< 4.00"}
    ]},
    {"substance": "albumin (from UniProt P02768)", "values": [
      {"measurement": "pKd", "setting": "cubilin", "result": 6.20},
      {"measurement": "pKd", "setting": "FcRn (Rattus norvegicus) [2]", "result": "< 4.00"}
    ]},
    {"substance": "albumin (from UniProt P07724)", "values": [
      {"measurement": "pKd", "setting": "FcRn (Rattus norvegicus) [3]", "result": "< 4.00"}
    ]},
    {"substance": "albumin (from UniProt P02770)", "values": [
      {"measurement": "pKd", "setting": "FcRn (Rattus norvegicus) [4]", "result": 5.00},
      {"measurement": "pKd", "setting": "FcRn (Rattus norvegicus) [5]", "result": "< 4.00"},
      {"measurement": "pKd", "setting": "FcRn (Rattus norvegicus) [6]", "result": 4.77},
      {"measurement": "pKd", "setting": "FcRn (Homo sapiens) [7]", "result": 5.96},
      {"measurement": "pKd", "setting": "FcRn (Rattus norvegicus) [8]", "result": 5.82},
      {"measurement": "pKd", "setting": "FcRn (Rattus norvegicus) [9]", "result": 5.27},
      {"measurement": "pKd", "setting": "FcRn (Rattus norvegicus) [10]", "result": 4.94},
      {"measurement": "pKd", "setting": "FcRn (Rattus norvegicus) [11]", "result": "< 4.40"},
      {"measurement": "pKd", "setting": "FcRn (Rattus norvegicus) [12]", "result": "4.96 and 5.22"}
    ]},
    {"substance": "Neonatal Fc receptor (FcRn), rat (rFcRn)", "values": [
      {"measurement": "pKd", "setting": "[13]", "result": 5.82},
      {"measurement": "pKd", "setting": "[14]; pH 6", "result": 4.94},
      {"measurement": "pKd", "setting": "[14]; pH 7.4", "result": "< 4.00"},
      {"measurement": "pKd", "setting": "[15]", "result": 5.27},
      {"measurement": "pKd", "setting": "[16]; pH 6", "result": 4.16},
      {"measurement": "pKd", "setting": "[16]; pH 7.4", "result": 6.00},
      {"measurement": "pKd", "setting": "[17]", "result": 5.00},
      {"measurement": "pKd", "setting": "[18]", "result": 4.77},
      {"measurement": "pKd", "setting": "[19]; pH 6", "result": 5.22},
      {"measurement": "pKd", "setting": "[19]; pH 7.4", "result": 4.96},
      {"measurement": "pKd", "setting": "[20]", "result": 4.96},
      {"measurement": "pKd", "setting": "[21]", "result": "< 4.00"},
      {"measurement": "pKd", "setting": "[22]", "result": "< 4.40"}
    ]},
    {"substance": "albumin (from UniProt P49065)", "values": [
      {"measurement": "pKd", "setting": "FcRn (Rattus norvegicus) [23]", "result": 4.93}
    ]},
    {"substance": "albumin (from UniProt P08835)", "values": [
      {"measurement": "pKd", "setting": "FcRn (Homo sapiens) [24]", "result": "< 4.30"},
      {"measurement": "pKd", "setting": "FcRn (Rattus norvegicus) [25]", "result": "< 4.00"}
    ]},
    {"substance": "albumin (from UniProt P14639)", "values": [
      {"measurement": "pKd", "setting": "FcRn (Rattus norvegicus) [26]", "result": "< 4.00"}
    ]}
  ]
}
